These results are taken from article PMC12102759 (2025).

Sequences and labels used below:
B1: PAIP1 peptide 124-139 (Polyadenylate-binding protein-interacting protein 1), 16-mer library wild type / PABPC1 PABC (PABPC1 PABC domain, residues 544-623) (parent complex)
chain 1: LMSKLSVNAPEFYPSG
chain 2: PLTASMLASAPPQEQKQMLGERLFPLIQAMHPTLAGKITGMLLEIDNSELLHMLESPESLRSKVDEAVAVLQAHQAKEAA

Variants of B1 are the subject of this assay. The experiment in a line: proteomic peptide phage display deep mutational scan (ProP-PD DMS): M13 P8 16-mer library selected against immobilised GST-tagged bait for four days (rounds), NGS of the eluted pools per day and pseudo-replica; bait immobilised on MaxiSorp plates (10 µg), library pre-cleared on GST, 2 h binding at 4 °C, five washes; one round per day, days 1-4; value from days 2 and 3.
Turning to chain 1 G16N, the screen value is 0.000134 average fractional NGS count over selection days 2 and 3 (reads of this peptide / all reads for the bait, averaged over ….

In the case of chain 1 G16V, the screen value was 0.0229 average fractional NGS count over selection days 2 and 3 (reads of this peptide / all reads for the bait, averaged over ….

For chain 1 G16D, the screen value was 0.000205 average fractional NGS count over selection days 2 and 3 (reads of this peptide / all reads for the bait, averaged over ….

Consider chain 1 G16E, for which the screen value is 0.000703 average fractional NGS count over selection days 2 and 3 (reads of this peptide / all reads for the bait, averaged over ….

Regarding chain 1 G16K, the screen value was 0.000565 average fractional NGS count over selection days 2 and 3 (reads of this peptide / all reads for the bait, averaged over ….

On to chain 1 G16M, for which the screen value is 0.00176 average fractional NGS count over selection days 2 and 3 (reads of this peptide / all reads for the bait, averaged over ….

Regarding chain 1 G16T, the screen value was 0.000984 average fractional NGS count over selection days 2 and 3 (reads of this peptide / all reads for the bait, averaged over ….

For chain 1 G16H, the screen value is 0.00575 average fractional NGS count over selection days 2 and 3 (reads of this peptide / all reads for the bait, averaged over ….

Take chain 1 G16Y: the screen value was 0.00314 average fractional NGS count over selection days 2 and 3 (reads of this peptide / all reads for the bait, averaged over ….

On to chain 1 K4M, for which the screen value was 0.000922 average fractional NGS count over selection days 2 and 3 (reads of this peptide / all reads for the bait, averaged over ….

On to chain 1 K4Q, for which the screen value was 0.00289 average fractional NGS count over selection days 2 and 3 (reads of this peptide / all reads for the bait, averaged over ….

As for chain 1 K4P, the screen value is 0.0037 average fractional NGS count over selection days 2 and 3 (reads of this peptide / all reads for the bait, averaged over ….

chain 1 K4I: the screen value is 0.000664 average fractional NGS count over selection days 2 and 3 (reads of this peptide / all reads for the bait, averaged over ….

In the case of chain 1 K4A, the screen value is 0.00111 average fractional NGS count over selection days 2 and 3 (reads of this peptide / all reads for the bait, averaged over ….

Consider chain 1 K4R, for which the screen value was 0.000924 average fractional NGS count over selection days 2 and 3 (reads of this peptide / all reads for the bait, averaged over ….

In the case of chain 1 K4T, the screen value was 0.00284 average fractional NGS count over selection days 2 and 3 (reads of this peptide / all reads for the bait, averaged over ….

With chain 1 K4D, the screen value is 0.000813 average fractional NGS count over selection days 2 and 3 (reads of this peptide / all reads for the bait, averaged over ….

On to chain 1 K4E, for which the screen value is 0.000553 average fractional NGS count over selection days 2 and 3 (reads of this peptide / all reads for the bait, averaged over ….

For chain 1 K4H, the screen value is 0.00136 average fractional NGS count over selection days 2 and 3 (reads of this peptide / all reads for the bait, averaged over ….

With chain 1 K4G, the screen value was 0.000301 average fractional NGS count over selection days 2 and 3 (reads of this peptide / all reads for the bait, averaged over ….

As to chain 1 A9S, the screen value was 0.000704 average fractional NGS count over selection days 2 and 3 (reads of this peptide / all reads for the bait, averaged over ….

Take chain 1 V7Y: the screen value is 0.000349 average fractional NGS count over selection days 2 and 3 (reads of this peptide / all reads for the bait, averaged over ….

Consider chain 1 V7H, for which the screen value was 0.00381 average fractional NGS count over selection days 2 and 3 (reads of this peptide / all reads for the bait, averaged over ….

For chain 1 V7P, the screen value is 0.00145 average fractional NGS count over selection days 2 and 3 (reads of this peptide / all reads for the bait, averaged over ….

Turning to chain 1 V7A, the screen value is 0.00224 average fractional NGS count over selection days 2 and 3 (reads of this peptide / all reads for the bait, averaged over ….

Take chain 1 V7S: the screen value was 0.00035 average fractional NGS count over selection days 2 and 3 (reads of this peptide / all reads for the bait, averaged over ….

chain 1 P14R: the screen value is 0.00035 average fractional NGS count over selection days 2 and 3 (reads of this peptide / all reads for the bait, averaged over ….

chain 1 P14M: the screen value was 0.000928 average fractional NGS count over selection days 2 and 3 (reads of this peptide / all reads for the bait, averaged over ….

Take chain 1 P14A: the screen value was 0.0008 average fractional NGS count over selection days 2 and 3 (reads of this peptide / all reads for the bait, averaged over ….

As to chain 1 P14W, the screen value is 0.000356 average fractional NGS count over selection days 2 and 3 (reads of this peptide / all reads for the bait, averaged over ….

On to chain 1 P14Q, for which the screen value was 0.000256 average fractional NGS count over selection days 2 and 3 (reads of this peptide / all reads for the bait, averaged over ….

Consider chain 1 P10A, for which the screen value is 0.0041 average fractional NGS count over selection days 2 and 3 (reads of this peptide / all reads for the bait, averaged over ….

With chain 1 P10H, the screen value is 0.000334 average fractional NGS count over selection days 2 and 3 (reads of this peptide / all reads for the bait, averaged over ….

As to chain 1 P10D, the screen value was 0.00221 average fractional NGS count over selection days 2 and 3 (reads of this peptide / all reads for the bait, averaged over ….

Take chain 1 P10I: the screen value is 0.000358 average fractional NGS count over selection days 2 and 3 (reads of this peptide / all reads for the bait, averaged over ….

Turning to chain 1 P10K, the screen value is 0.000696 average fractional NGS count over selection days 2 and 3 (reads of this peptide / all reads for the bait, averaged over ….

As for chain 1 P10N, the screen value was 0.00136 average fractional NGS count over selection days 2 and 3 (reads of this peptide / all reads for the bait, averaged over ….

Regarding chain 1 P10E, the screen value is 0.00302 average fractional NGS count over selection days 2 and 3 (reads of this peptide / all reads for the bait, averaged over ….

With chain 1 P10S, the screen value is 0.00454 average fractional NGS count over selection days 2 and 3 (reads of this peptide / all reads for the bait, averaged over ….

Regarding chain 1 P10M, the screen value is 0.000583 average fractional NGS count over selection days 2 and 3 (reads of this peptide / all reads for the bait, averaged over ….

As to chain 1 P10Q, the screen value was 0.000419 average fractional NGS count over selection days 2 and 3 (reads of this peptide / all reads for the bait, averaged over ….

In the case of chain 1 P10R, the screen value was 0.000887 average fractional NGS count over selection days 2 and 3 (reads of this peptide / all reads for the bait, averaged over ….

As for chain 1 S6N, the screen value is 0.000518 average fractional NGS count over selection days 2 and 3 (reads of this peptide / all reads for the bait, averaged over ….

On to chain 1 S6W, for which the screen value was 0.000475 average fractional NGS count over selection days 2 and 3 (reads of this peptide / all reads for the bait, averaged over ….

With chain 1 N8T, the screen value is 0.00351 average fractional NGS count over selection days 2 and 3 (reads of this peptide / all reads for the bait, averaged over ….

As for chain 1 N8M, the screen value was 0.000551 average fractional NGS count over selection days 2 and 3 (reads of this peptide / all reads for the bait, averaged over ….

With chain 1 N8A, the screen value was 0.000206 average fractional NGS count over selection days 2 and 3 (reads of this peptide / all reads for the bait, averaged over ….

In the case of chain 1 N8S, the screen value was 0.00131 average fractional NGS count over selection days 2 and 3 (reads of this peptide / all reads for the bait, averaged over ….

For chain 1 N8L, the screen value is 0.00116 average fractional NGS count over selection days 2 and 3 (reads of this peptide / all reads for the bait, averaged over ….

On to chain 1 N8E, for which the screen value was 0.000334 average fractional NGS count over selection days 2 and 3 (reads of this peptide / all reads for the bait, averaged over ….

For chain 1 N8F, the screen value was 0.00423 average fractional NGS count over selection days 2 and 3 (reads of this peptide / all reads for the bait, averaged over ….

With chain 1 N8W, the screen value was 0.000471 average fractional NGS count over selection days 2 and 3 (reads of this peptide / all reads for the bait, averaged over ….

For the variant chain 1 N8Y, the screen value was 0.000292 average fractional NGS count over selection days 2 and 3 (reads of this peptide / all reads for the bait, averaged over ….

With chain 1 Y13L, the screen value was 0.00572 average fractional NGS count over selection days 2 and 3 (reads of this peptide / all reads for the bait, averaged over ….

Regarding chain 1 Y13M, the screen value is 0.000346 average fractional NGS count over selection days 2 and 3 (reads of this peptide / all reads for the bait, averaged over ….

As to chain 1 Y13V, the screen value was 0.000146 average fractional NGS count over selection days 2 and 3 (reads of this peptide / all reads for the bait, averaged over ….

Consider chain 1 Y13R, for which the screen value was 0.000336 average fractional NGS count over selection days 2 and 3 (reads of this peptide / all reads for the bait, averaged over ….

As to chain 1 Y13T, the screen value was 0.00149 average fractional NGS count over selection days 2 and 3 (reads of this peptide / all reads for the bait, averaged over ….

With chain 1 Y13H, the screen value is 0.000948 average fractional NGS count over selection days 2 and 3 (reads of this peptide / all reads for the bait, averaged over ….

Consider chain 1 Y13Q, for which the screen value is 0.00152 average fractional NGS count over selection days 2 and 3 (reads of this peptide / all reads for the bait, averaged over ….

Consider chain 1 Y13E, for which the screen value was 0.00175 average fractional NGS count over selection days 2 and 3 (reads of this peptide / all reads for the bait, averaged over ….

With chain 1 Y13K, the screen value is 0.00389 average fractional NGS count over selection days 2 and 3 (reads of this peptide / all reads for the bait, averaged over ….

In the case of chain 1 Y13S, the screen value is 0.000669 average fractional NGS count over selection days 2 and 3 (reads of this peptide / all reads for the bait, averaged over ….

For the variant chain 1 Y13I, the screen value was 0.021 average fractional NGS count over selection days 2 and 3 (reads of this peptide / all reads for the bait, averaged over ….

As for chain 1 Y13W, the screen value is 0.00367 average fractional NGS count over selection days 2 and 3 (reads of this peptide / all reads for the bait, averaged over ….

Consider chain 1 Y13A, for which the screen value is 0.001 average fractional NGS count over selection days 2 and 3 (reads of this peptide / all reads for the bait, averaged over ….

Turning to chain 1 Y13D, the screen value is 0.00104 average fractional NGS count over selection days 2 and 3 (reads of this peptide / all reads for the bait, averaged over ….

Turning to chain 1 M2G, the screen value is 0.00279 average fractional NGS count over selection days 2 and 3 (reads of this peptide / all reads for the bait, averaged over ….

With chain 1 M2W, the screen value is 0.000144 average fractional NGS count over selection days 2 and 3 (reads of this peptide / all reads for the bait, averaged over ….

Turning to chain 1 M2N, the screen value is 0.00156 average fractional NGS count over selection days 2 and 3 (reads of this peptide / all reads for the bait, averaged over ….

Take chain 1 M2E: the screen value is 0.00221 average fractional NGS count over selection days 2 and 3 (reads of this peptide / all reads for the bait, averaged over ….

For chain 1 M2L, the screen value is 0.000374 average fractional NGS count over selection days 2 and 3 (reads of this peptide / all reads for the bait, averaged over ….

Take chain 1 M2P: the screen value is 0.000581 average fractional NGS count over selection days 2 and 3 (reads of this peptide / all reads for the bait, averaged over ….

On to chain 1 M2K, for which the screen value was 0.000358 average fractional NGS count over selection days 2 and 3 (reads of this peptide / all reads for the bait, averaged over ….

chain 1 M2V: the screen value was 0.000531 average fractional NGS count over selection days 2 and 3 (reads of this peptide / all reads for the bait, averaged over ….
